How the values were obtained:
[1] = molecular target: cof1_rat Cfl1 (UniProt P45592)
[2] = molecular target: cof1_rat Cfl1 (UniProt P45592); remark: listed apart in the source
[3] = molecular target: cofa_dicdi cofA (UniProt P0DJ26)
Chain of cofa_dicdi cofA (P0DJ26 whole entry): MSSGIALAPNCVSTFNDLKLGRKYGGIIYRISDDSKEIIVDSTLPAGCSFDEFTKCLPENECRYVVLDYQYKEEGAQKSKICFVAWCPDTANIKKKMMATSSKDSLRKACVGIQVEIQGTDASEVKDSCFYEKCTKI

Chain of cof1_rat Cfl1 (P45592 whole entry): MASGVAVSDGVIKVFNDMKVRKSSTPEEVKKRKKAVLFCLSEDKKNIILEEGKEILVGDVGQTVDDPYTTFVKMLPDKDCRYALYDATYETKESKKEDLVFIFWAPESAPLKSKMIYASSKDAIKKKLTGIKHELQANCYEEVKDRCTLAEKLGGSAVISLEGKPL
Chain of Src substrate cortactin (Mus musculus), Q60598 Y421F;Y466F;Y482F (Q60598 whole entry Y421F/Y466F/Y482F): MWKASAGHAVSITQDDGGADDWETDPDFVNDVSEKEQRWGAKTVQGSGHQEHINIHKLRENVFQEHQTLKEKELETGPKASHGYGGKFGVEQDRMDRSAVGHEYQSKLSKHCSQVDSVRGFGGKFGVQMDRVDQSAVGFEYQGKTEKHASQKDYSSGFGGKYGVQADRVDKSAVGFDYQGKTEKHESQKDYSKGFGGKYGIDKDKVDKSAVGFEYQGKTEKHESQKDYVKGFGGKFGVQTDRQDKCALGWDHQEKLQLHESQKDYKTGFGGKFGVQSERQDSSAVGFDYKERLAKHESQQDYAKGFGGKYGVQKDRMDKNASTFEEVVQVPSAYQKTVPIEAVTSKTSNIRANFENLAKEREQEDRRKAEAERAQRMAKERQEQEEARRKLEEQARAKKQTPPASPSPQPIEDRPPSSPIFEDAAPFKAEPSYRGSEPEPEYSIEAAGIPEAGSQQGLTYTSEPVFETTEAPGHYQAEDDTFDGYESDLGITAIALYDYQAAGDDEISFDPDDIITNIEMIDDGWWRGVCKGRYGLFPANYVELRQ
Chain of Src substrate cortactin (Mus musculus), Q60598 Y421E;Y466E;Y482E (Q60598 whole entry Y421E/Y466E/Y482E): as the sequence (Q60598 whole entry Y421F/Y466F/Y482F) above, with F421E, F466E, F482E counted along it

Substance: Src substrate cortactin (Mus musculus), Q60598 Y421E;Y466E;Y482E
- effect of a mutation on the interaction [1]: decreasing interaction

Substance: Src substrate cortactin (Mus musculus), Q60598 Y421F;Y466F;Y482F
- effect of a mutation on the interaction [2]: increasing interaction
- effect of a mutation on the interaction [3]: increasing interaction

— IntAct's records for PubMed 19704022
